T1: mouse CD25-his (mouse, UniProt P01590)
T1 chain: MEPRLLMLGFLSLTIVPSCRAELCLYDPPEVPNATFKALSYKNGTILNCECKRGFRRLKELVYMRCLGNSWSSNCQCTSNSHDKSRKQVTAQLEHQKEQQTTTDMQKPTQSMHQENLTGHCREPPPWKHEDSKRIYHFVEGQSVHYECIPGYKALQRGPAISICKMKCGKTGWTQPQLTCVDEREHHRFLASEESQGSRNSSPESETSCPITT

T2: human CD25-his (human, UniProt P01589)
T2 chain: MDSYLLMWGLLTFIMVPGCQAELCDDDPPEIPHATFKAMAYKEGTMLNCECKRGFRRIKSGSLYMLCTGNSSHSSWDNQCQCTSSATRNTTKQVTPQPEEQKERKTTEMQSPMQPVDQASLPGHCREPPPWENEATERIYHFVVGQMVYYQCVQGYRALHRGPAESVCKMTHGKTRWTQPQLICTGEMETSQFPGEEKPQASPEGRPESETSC

T3: human CD25 on CHO-K1 cells (human, UniProt P01589)
T3 chain: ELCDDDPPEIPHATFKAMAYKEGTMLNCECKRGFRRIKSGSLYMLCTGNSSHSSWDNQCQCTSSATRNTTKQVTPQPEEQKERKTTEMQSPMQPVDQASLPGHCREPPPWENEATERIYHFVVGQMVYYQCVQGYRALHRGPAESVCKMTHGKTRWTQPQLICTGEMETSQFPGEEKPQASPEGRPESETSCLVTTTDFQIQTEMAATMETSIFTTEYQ


Legend:
[1] = molecular target: T1, mouse CD25-his; assay: ELISA
[2] = molecular target: T2, human CD25-his; assay: ELISA
[3] = molecular target: T3, human CD25 on CHO-K1 cells; assay: FACS
[4] = molecular target: T2, human CD25-his; assay: SPR, 25C

Binder | binding result [1] | further results
2047-3H8L2 (2047-3ix) (antibody, V domains shown) VH: QVQLKQSGAELVKPGASVKMSCKTSGYTFTDYVISWVKQRTGQGLEWIGEIYPGSGSTYYNEKFKGKATLTADISSNTAYMQLSSLTSEDSAVYFCASINFDYWGHGTTLTVSS VL: DIVMTQSPATLSVTPGDRVSLSCRASQSISDYLHWYQQKSHESPRLLIKYASQSISGIPSRFSGSGSGSDFTLSINSVEPEDVGVYYCQNGHSFPYTFGGGTKLEIK | no binding | –
2047-10H1L2 (2047-10ix) (antibody, V domains shown) VH: QVQLQQSGPELVRPGVSVKISCKGSGYTFTDYAMHWVKQSHAKSLEWIGVISTYNGNTNYNQKFKGKATMTVDKSSSTAYMELARLTSEDSAIYYCARSYGNYPFDYWGQGTTLTVSS VL: DIKMTQSPSSMYASLGERVTITCKASQDINSYLSWFQQKPGKSPKTLIYRANRLVDGVPSRFSGSGSGQDYSLTISSLEYEDMGIYYCLQYDEFPYTFGGGTKLEIK | no binding | –
2046-36H2L1 (2046-36ix) (antibody, V domains shown) VH: QIQLVQSGPELKKPGETVRISCKASGYTFTTAGMQWVQKMPGKGLKWIGWINTHSGVPKYAEDFKGRFAFSLETSASTAYLQISNLKNEDTATYFCASDYAFGYWGQGTLVTVSA VL: not shown | no binding | –
2046-24H2L1 (2046-24ix) (antibody, V domains shown) VH: DVQLQESGPGLVKPSQSLSLTCTVTGYSITSDYAWNWIRQFPGNKLEWMGYISYGGTTIYNPSLKSRISITRDTSKNQFFLQLNSVTTEDTATYYCARWLLQNYYAMDYWGQGTSVTVSS VL: DVVMTQTPLSLPVSLGDQASISCRSSQSLVHSNGNTYLHWYLQKPGQSPKVLIYKVSNRFSGVPDRFSGSGSGTDFTLKISRVEAEDLGVYFCSQNTHVPLTFGAGTKLELK | no binding | –
2046-61H1L2 (2046-61ix) (antibody) chain 1: DVQLQESGPGLVKPSQSLSLTCTVTGYSITSDYAWNWIRQFPGNKLEWMGYISYSGGTIYNPSLKSRISITRDTSKNQFFLQLNSVTTEDTATYYCARWLLQNYYAMDYWGQGTSVTVSS chain 2: DVVMTQTPLSLPVSLGDQASISCRSSQSLVHSNGNTYLHWNLQKPGQSPKLLIYKVSNRFSGVPDRFSGSGSGTDFTLKISRVEAEDLGVYFCSQSTHVPLTFSAGTKLELK | no binding | EC50 [2]: 0.144 µg/mL; EC50 [3]: 0.00114 µg/mL; Kd [4]: 9.44 nM
2046-2H1L1 (2046-2ix) (antibody, V domains shown) VH: DVQLQESGPGLVKPSQSLSLTCTVTGYSITSDYAWNWIRHFPGNKLEWMGYITYSGSTVYNPSLKSRISITRDTSKNHFFLQLNSVTTEDTATYYCARWLLQIYYAMDYWGQGTSVTVSS VL: DVVMTQTPLSLPVSLGDQASISCRSSQSLVHSNGNTYLHWYLQKPGQSPKLLIYKVSNRFSGVPDRFSGSGSGTDFTLKISRVEAEDLGVYFCSQSTHVPLTFGAGTKLELK | no binding | –
2046-18H1L1 (2046-18ix) (antibody, V domains shown) VH: DVQLQESGPGLVKPSQSLSLTCTVTGYSITSDYAWNWIRQFPGNKLEWMGYISYSGITIYNPSLKSRISITRDTSKNQFFLQLNSVTTEDTATYYCARWLLQIYYAMDYWGQGTSVTVSS VL: DVVMTQTPLSLPVSLGDQASISCSSSQSLVHSNGNTYLHWYLHKPGQSPKLLIYKVSNRFSGVPDRFSGSGSGTDFTLKISRVEAEDLGVYFCSQSTHVPLTFGAGTKLELK | no binding | –
2046-111H2L1 (2046-111ix) (antibody, V domains shown) VH: DVQLQESGPGLVKPSQSLSLTCTVTGHSITSDYAWNWIRQFPGNKLEWMGYISYSGSTIYNPSLKSRISITRDTSKNQFFLQLNSVTTEDTATYYCARWLLQNYYAMDYWGQGTSVTVSS VL: DVVMTQTPLSLPVSLGDQASISCRSSQSLVHSNGNTYLHWYLRKPGQSPKLLIYKVSNRFSGVPDRFSGSGSGTDFTLKISRVEAEDLGVYFCSQSTHVPLTFGAGTKLELK | no binding | –

— patent EP4386000 (dated 2024)
